Results published in patent WO2001072771A2.

Key:
[1] = molecular target: soluble IGF-1 receptor (human) (UniProt P08069); experiment: phage ELISA
[2] = molecular target: soluble human insulin receptor (IR-Fc) (human) (UniProt P06213); experiment: phage ELISA
[3] = molecular target: soluble IGF-1 receptor (human) (UniProt P08069); experiment: phage ELISA; non-fat milk blank 0.09
[4] = molecular target: soluble human insulin receptor (IR-Fc) (human) (UniProt P06213); experiment: phage ELISA; non-fat milk blank 0.09
[5] = molecular target: soluble IGF-1 receptor (human) (UniProt P08069); experiment: phage ELISA; non-fat milk blank 0.10
[6] = molecular target: soluble human insulin receptor (IR-Fc) (human) (UniProt P06213); experiment: phage ELISA; non-fat milk blank 0.10
[7] = molecular target: soluble IGF-1 receptor (human) (UniProt P08069); experiment: phage ELISA; non-fat milk blank 0.11
[8] = molecular target: soluble human insulin receptor (IR-Fc) (human) (UniProt P06213); experiment: phage ELISA; non-fat milk blank 0.11

| Binder | ratio over background [1] | ratio over background [2] | further results |
| --- | --- | --- | --- |
| TSEVQRRSQDNFYDWFVAQVA [A6S-3-E2-IR] | 24.7 | 9.8 | – |
| LSCLAYSRHGIWRPSTDLGLGRSVGEGSVSTRWRGYDWFE [40F-4-D1-IGFR] | 4.6 | 0.3 | – |
| TFYSCLASLLTGTPQPNRGPWERCR [20C-3-G3-IGFR] | 32.3 | 1.2 | – |
| GFREGNFYEWFQAQVT [E4D -4-H2-IR] | 33.9 | 8.2 | – |
| NYRRQVFNGNFYDWFDRQVFSLVTPG [H2CA-3-D8-IGFR] | 7.2 | 1.8 | – |
| QGGSASFYDAIDRLLRMRIGG [20E2A-4-F11-IGFR] | 18.8 | 1.3 | – |
| RAGSSDFHEDFYEWFVRQVSLSLKGK [H2CA-2-B9-IGFR] | 7 | 1.7 | – |
| GVRAMSFYDALVSVLGLGPSG [20E2B-1-A6-IGFR] | 18.1 | 1.1 | – |
| GIISQSCPESFYDWFAGQVSDPWWCW [H2CA-4-G9-IGF] | 9.5 | 0.6 | – |
| CCLLCRFQQNFYDWFVCQGISRLRPL [H2CA-2-B4-IGFR] | 4.1 | 1.1 | – |
| SMFVAGSDRWPGYGVLADWL [F2 phage] | – | – | absorbance (405 nm) [3]: 2.08; absorbance (405 nm) [4]: 1.43 |
| SSCDGAGHESFYEWFVRQVSGCRSV [H2CA-3-C8-IGFR] | 5.6 | 1.2 | – |
| RLFYCGIQALGANLGYSGCV [R20 -4-20A12-IR] | 39.9 | 2.4 | – |
| SRAKVEAEMPDSGDPFYHKLSELLASG [B6Hα-1-A3-IR] | 2.6 | 0.8 | – |
| QAVQPGFHEEFYDWFVRQVSTGVGGG [H2CA-4-H4-IGFR] | 4.1 | 1 | – |
| QSPVGSSHEDFYDWFFRQVAQSGAHQ [H2CA-3-D6-IGFR] | 9 | 2.2 | – |
| VRGFQGGTVWPGYEWLRNAA [R20β-4-E8-IR] | 34.9 | 3.6 | absorbance (405 nm) [5]: 2; absorbance (405 nm) [6]: 1.34 |
| VNQSGSIHENFYDWFERQVSHQRGVR [H2CA-4-F10-IGFR] | 5.7 | 1 | – |
| FYDAIDQLVRGSARAGGTRD [R20α-3-20E2-IR] | 39.9 | 3.1 | absorbance (405 nm) [7]: 2.15; absorbance (405 nm) [8]: 1.01 |
| RCGRELYHSTFYDWFDRQVAGRTCPS [H2CA-1-A7-IGFR] | 2.2 | 0.6 | – |
| HLADGQFHEKFYDWFERQISSRCNDC [H2CA-3-E11-IGFR] | 2.2 | 1 | – |
| LGYQEPFQQNFYDWFVRQVSGAENAG [H2CA-3-E8-IGFR] | 6.3 | 2.2 | – |
| LKDGFYDYFWQRLHLGS [NNRPγ-4-B11-IR] | 18.7 | 1.2 | – |
| CCTTEMWMDARDDPFYHKLSELVTGG [B6Hα-1-B5-IR] | 20.5 | 1 | – |
| APDPSDFQEIFYDWFVRQVSRMPGGG [H2CA-1-A3-IGFR] | 3.8 | 0.8 | – |
| RGCNDDGGKGWSDDPFYHKLSELICGG [B6Hα-1-A2-IR] | 14.6 | 1 | – |
